According to PMC4006704:

Legend:
[1] = molecular target: GST-Med19 (Drosophila melanogaster) (UniProt Q9VVL6); experiment: pull-down; 35S-labelled Hox / homeodomain peptides on immobilised GST-Med19 (Figures 1E, S2)
[2] = molecular target: multiple GST-Hox proteins (Drosophila melanogaster); experiment: pull-down; 35S-labelled Med19 (full length or deleted versions) probing immobilised GST-Hox fusions or GST-HDAntp; standard conditions, essentially as in ref. 68 (Figures 1A, 5A)

| percent of input bound [1] | percent of input bound [2] | Molecule |
| --- | --- | --- |
| 5 % of input | – | HD region of crustacean Artemia Ubx (linker-shortened C-terminal region) (domain or fragment) |
| 7 % of input | – | HD region of Drosophila Ubx, with its hexapeptide (HX), linker region and HD (wild-type) (domain or fragment) |
| – | > 5 % of input | 35S-labelled full-length Med19 (Mediator complex subunit 19) (natural protein, 35S-labelled) MMSNYGNMMDSPKSSPHGGGRSPVVARQDSSGTLKTTISLGKTPTIIHTGPFYSMKEPPAKAELTGDKDLMTEYGLHHTLTKFKEKKFKESLASFLQNIPGINDLITHPVENSTLRSVIEKPPIGGKELLPLTPVQLAGFRLHPGPLPEQYRTTYVTPARKHKNKHKKQKHKDGVTTGQESTLLDSAGLETYEKKHKKQKRHEDDKERKKRKKEKKRKKKNQSPEPGVGLLPGGASLGGAAGVMGATSLGSLGGGPGGPGLSSLSASMGPGVVGNMNSFSSSMQMQQQQQMPMQQQQMSSGGLLGSVLGTSGGPGGGGGGGGGGGGGVGGSLLMSQF |
